According to the supplement of paper PMC9233669:
Variants at the floor of the assay were thinned out.

Assays:
biotinyl-Ile-oxazolone = assay: self-aminoacylation, catalytic enhancement (BIO) (fold over background); higher = more active; k-Seq, kA / k0A0; sequences stand for … in GGGAAUGGAUCCACAUCUACGAAUUC…UUCACUGCAGACUUGACGAAGCUG
How it was run: (§1)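 Working in 50 μL HEPES/NaCl/KCl/MgCl2/CaCl2 buffer with 5% acetonitrile at pH 6.9–7.0, mutagenized RNA pools (0.43 μM; 21-nt variable region) were reacted with 2–1250 μM of each biotinyl-aminoacyl-oxazolone for 90 minutes at room temperature. Streptavidin capture followed, with quantification by triplicate qPCR and Illumina sequencing. Catalytic enhancement is reported as median kA over the uncatalyzed rate, the low-activity peak of a bimodal Gaussian fit to the data.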

biotinyl-Trp-oxazolone = assay: self-aminoacylation, catalytic enhancement (BWO) (fold over background); higher = more active; k-Seq, kA / k0A0; sequences stand for … in GGGAAUGGAUCCACAUCUACGAAUUC…UUCACUGCAGACUUGACGAAGCUG
How it was run: as §1

biotinyl-Met-oxazolone = assay: self-aminoacylation, catalytic enhancement (BMO) (fold over background); higher = more active; k-Seq, kA / k0A0; sequences stand for … in GGGAAUGGAUCCACAUCUACGAAUUC…UUCACUGCAGACUUGACGAAGCUG
How it was run: as §1

biotinyl-Val-oxazolone = assay: self-aminoacylation, catalytic enhancement (BVO) (fold over background); higher = more active; k-Seq, kA / k0A0; sequences stand for … in GGGAAUGGAUCCACAUCUACGAAUUC…UUCACUGCAGACUUGACGAAGCUG
How it was run: as §1

biotinyl-Leu-oxazolone = assay: self-aminoacylation, catalytic enhancement (BLO) (fold over background); higher = more active; k-Seq, kA / k0A0; sequences stand for … in GGGAAUGGAUCCACAUCUACGAAUUC…UUCACUGCAGACUUGACGAAGCUG
How it was run: as §1

biotinyl-Phe-oxazolone = assay: self-aminoacylation, catalytic enhancement (BFO) (fold over background); higher = more active; k-Seq, kA / k0A0; sequences stand for … in GGGAAUGGAUCCACAUCUACGAAUUC…UUCACUGCAGACUUGACGAAGCUG
How it was run: as §1

| Sequence | self-aminoacylation (biotinyl-Ile-oxazolone) | self-aminoacylation (biotinyl-Trp-oxazolone) | self-aminoacylation (biotinyl-Met-oxazolone) | self-aminoacylation (biotinyl-Val-oxazolone) | self-aminoacylation (biotinyl-Leu-oxazolone) | self-aminoacylation (biotinyl-Phe-oxazolone) |
| --- | --- | --- | --- | --- | --- | --- |
| AUAACCCUGGUCAACGAGUGA [Fam2.1 aminoacylation ribozyme variant] | 3.32 | 6.89 | 6.45 | 3.33 | 5.91 | 31.1 |
| AUUACCCUGGUCAUAGAGCGA [Fam2.1 aminoacylation ribozyme variant] | 1.05 | 1.18 | 1.03 | 1.04 | 1.04 | 1.37 |
| GUUAGCCUGGUCAUCGAGUGA [Fam2.1 aminoacylation ribozyme variant] | 5.11 | 8.56 | 6.67 | 5.04 | 7.66 | 51.9 |
| AGGUUUGCUACUAGUCGCAAG [Fam3.1 aminoacylation ribozyme variant] | 1.35 | 1.77 | 1.55 | 1.69 | 1.84 | 2.49 |
| AUUCACCUAGGUCAUCAAGUG [Fam2.2 aminoacylation ribozyme variant] | 0.747 | 0.347 | 0.662 | 0.711 | 0.756 | 1.21 |
| AUUACCGUGGUCAACGAGUGA [Fam2.1 aminoacylation ribozyme variant] | 3.61 | 9.2 | 6.41 | 4.21 | 7.25 | 36.7 |
| AAUCACCUAUGUCAUCGGGUG [Fam2.2 aminoacylation ribozyme variant] | 3.28 | 6.14 | 4.23 | 3.29 | 4.9 | 23.4 |
| AUUCAUCUAGGUCAUGGGGUG [Fam2.2 aminoacylation ribozyme variant] | 3.26 | 4.54 | 4.98 | 3.14 | 6.73 | 37 |
| CCACACUUCCAGCAAUCGGUG [Fam1B.1 aminoacylation ribozyme variant] | 2.74 | 3.13 | 3.83 | 3.05 | 4.82 | 18.9 |
| CUACUUCAAUCAAUCGGUUUG [Fam1A.1 aminoacylation ribozyme variant] | 0.895 | 15.1 | 0.886 | 0.96 | 1.21 | 26.6 |
| AUUACCAUGGUCAUCCAGUGA [Fam2.1 aminoacylation ribozyme variant] | 3.62 | 8 | 5.96 | 3.46 | 6.27 | 28.2 |
| AUUCACCUUGGUCAUCAGGUG [Fam2.2 aminoacylation ribozyme variant] | 1.7 | 2.15 | 1.9 | 1.39 | 2.49 | 7.28 |
| AUUCACCUAGGUAAUCGGGUU [Fam2.2 aminoacylation ribozyme variant] | 0.997 | 0.977 | 1.09 | 1.16 | 1.17 | 0.331 |
| CUACACUUCAAGCAAUGGGUC [Fam1B.1 aminoacylation ribozyme variant] | 0.65 | 0.47 | 0.494 | 0.536 | 0.542 | 0.544 |
| CCACACUUCUAGCAAUCGGGC [Fam1B.1 aminoacylation ribozyme variant] | 2.09 | 1.7 | 1.08 | 1.64 | 1.21 | 4.87 |
| CUUACCCUGGUGAUCGAGUGA [Fam2.1 aminoacylation ribozyme variant] | 2.65 | 5.52 | 4.51 | 2.81 | 4.36 | 14.5 |
| UUUCACCUAGAUCAUCGGGUG [Fam2.2 aminoacylation ribozyme variant] | 2.35 | 3.04 | 2.58 | 2.58 | 2.82 | 16.5 |
| AUUCACCUAGGGCAUCGGGUU [Fam2.2 aminoacylation ribozyme variant] | 1.91 | 2.78 | 2.08 | 2.01 | 2.37 | 5.04 |
| AUUACCCUGAUCAUCGAGUGU [Fam2.1 aminoacylation ribozyme variant] | 1.81 | 5.04 | 4.23 | 2.24 | 3.28 | 5.33 |
| CAACACUUCAAGCUAUCGGUC [Fam1B.1 aminoacylation ribozyme variant] | 1.2 | 1.02 | 1.03 | 1.05 | 0.89 | 0.964 |
| AUUCACCUAGGUCAUGAGGUG [Fam2.2 aminoacylation ribozyme variant] | 1.94 | 1.75 | 2.41 | 1.81 | 3.15 | 3.32 |
| CCACACUUCGAGCAAUCCGUC [Fam1B.1 aminoacylation ribozyme variant] | 1.28 | 1.4 | 1.03 | 1.49 | 1.08 | 0.498 |

| Sequence | self-aminoacylation (biotinyl-Ile-oxazolone) | self-aminoacylation (biotinyl-Trp-oxazolone) | self-aminoacylation (biotinyl-Met-oxazolone) | self-aminoacylation (biotinyl-Val-oxazolone) | self-aminoacylation (biotinyl-Leu-oxazolone) | self-aminoacylation (biotinyl-Phe-oxazolone) |
| --- | --- | --- | --- | --- | --- | --- |
| AAGUGUGCCAAUAGUCGCAAG [Fam3.1 aminoacylation ribozyme variant] | 2.38 | 1.66 | 1.97 | 1.61 | 1.78 | 2.66 |
| CUACCUAAAACAAUCGGUCUG [Fam1A.1 aminoacylation ribozyme variant] | 0.883 | 0.697 | 0.761 | 0.991 | 0.624 | 0.787 |
| AAGUUUGCUAAAAGUCGCAGG [Fam3.1 aminoacylation ribozyme variant] | 1.26 | 1.3 | 1.37 | 1.12 | 1.07 | 1.77 |
| GUACUUCAAACAAUCGGUGUG [Fam1A.1 aminoacylation ribozyme variant] | 2.12 | 10.2 | 2.77 | 1.97 | 3.35 | 10.4 |
| AUUCUCCUCGGUCAUCGGGUG [Fam2.2 aminoacylation ribozyme variant] | 8.05 | 11.6 | 11.3 | 7.28 | 15.5 | 108 |
| AUACACCUAGCUCAUCGGGUG [Fam2.2 aminoacylation ribozyme variant] | 1.9 | 1.24 | 2.23 | 2.21 | 1.91 | 4.61 |
| AUCACCCUAGUCAUCGAGUGA [Fam2.1 aminoacylation ribozyme variant] | 4.35 | 7.4 | 8.04 | 4.27 | 8.78 | 49.7 |
| CCACACUUCAAGCAAUCGGAU [Fam1B.1 aminoacylation ribozyme variant] | 1.03 | 1.63 | 0.886 | 1.38 | 0.789 | 0.817 |
| AUUACACUGGUCAUCGGGUGA [Fam2.1 aminoacylation ribozyme variant] | 5.02 | 9.23 | 9.88 | 5.51 | 9.65 | 59.4 |
| CGACACAUCAAGCAAUCGGUC [Fam1B.1 aminoacylation ribozyme variant] | 1.01 | 0.828 | 0.811 | 1.13 | 1.09 | 1.47 |
| AUUACCCUGGUCGUCGAGUAA [Fam2.1 aminoacylation ribozyme variant] | 1.27 | 0.721 | 1.3 | 1.12 | 1.68 | 1.08 |
| AUUAGCCUGGUAAUCGAGUGA [Fam2.1 aminoacylation ribozyme variant] | 5.28 | 12.8 | 11.6 | 5.07 | 13.3 | 75.9 |
| AUUCUACUAGGUCAUCGGGUG [Fam2.2 aminoacylation ribozyme variant] | 3.7 | 5.93 | 5.82 | 3.87 | 7.31 | 41.7 |
| AUUACCCUGGCCAUCGAGUGG [Fam2.1 aminoacylation ribozyme variant] | 1.26 | 1.66 | 1.72 | 1.17 | 1.95 | 2.71 |
| AGGUUUGCUAAUAGUCGCAAA [Fam3.1 aminoacylation ribozyme variant] | 2.52 | 1.92 | 2.11 | 2.2 | 2.42 | 3.21 |
| AAAUUUGCUAAUAGUCGCCAG [Fam3.1 aminoacylation ribozyme variant] | 2.08 | 2.92 | 1.75 | 2.15 | 1.67 | 4.62 |
| AUUCAUCUAGGUCAUCGCGUG [Fam2.2 aminoacylation ribozyme variant] | 7.55 | 11.3 | 14.2 | 7.87 | 18.5 | 128 |
| CGACUUCAAACAAUCGGUAUG [Fam1A.1 aminoacylation ribozyme variant] | 1.09 | 5.6 | 1.16 | 1.28 | 1.3 | 10.8 |
| CUACUGCAACCAAUCGGUCUG [Fam1A.1 aminoacylation ribozyme variant] | 0.53 | 0.608 | 0.585 | 0.567 | 0.495 | 0.691 |
| AUGUUAGCUAAUAGUCGCAAG [Fam3.1 aminoacylation ribozyme variant] | 1.57 | 0.993 | 1.45 | 1.29 | 1.39 | 1.84 |
| AUUAGCCUGGUCAUCGAGGGA [Fam2.1 aminoacylation ribozyme variant] | 2.08 | 3.19 | 1.49 | 2.4 | 2.52 | 2.28 |
